Experimental findings from patent US20230212319A1, “NOVEL ANTIGEN BINDING DOMAINS AND SYNTHETIC ANTIGEN RECEPTORS INCORPORATING THE SAME” (University of Southern California, priority 2020, published 2023) are described below.

For one assay, the system named is PC3 cells. The assay can be described thus: JNG NFAT-GFP induction on co-culture with PC3.
The test system of the next assay is SKOV3 cells. Type of assay: cell-based.
The subject of the next assay is RAJI cells. The assay can be described thus: JNG (Jurkat NFAT-GFP) cells expressing SAR: GFP induction on co-culture with RAJI.
In a further assay the test system is DAUDI (CD20+) cells. Type of assay: cell-based.
Another assay deals with RS411 cells. Type of assay: cell-based.

B1: 22691 (protein)
chain: MALPVTALLLPLALLLHAARPDIQMTQSPSSLSASVGDRVTITCRASQDISSYLNWYQQKPGKAPKLLIYYTSRLHSGVPSRFSGSGSGTDFTLTISSLQPEDFATYYCQQGNTLPYTFGQGTKVEIKRLEDLKNVFPPEVAVFEPSEAEISHTQKATLVCLATGFYPDHVELSWWVNGKEVHSGVCTDPQPLKEQPALNDSRYCLSSRLRVSATFWQNPRNHFRCQVQFYGLSENDEWTQDRAKPVTQIVSAEAWGRADCGFTSESYQQGVLSATILYEILLGKATLYAVLVSALVLMAMVKRKDSRGRAKRSGSGATNFSLLKQAGDVEENPGPTSMDWIWRILFLVGAATGAHSFEVQLVESGGGLVQPGGSLRLSCAASGFTFSDYFMSWVRQAPGKGLEWVATISNGGTYTYYPDSVKGRFTISRDNSKNTLYLQMNSLRAEDTAVYYCARFDGYIFDYWGQGTLVTVSSTRIQNPDPAVYQLRDSKSSDKSVCLFTDFDSQTNVSQSKDSDVYITDKCVLDMRSMDFKSNSAVAWSNKSDFACANAFNNSIIPEDTFFPSPESSCDVKLVEKSFETDTNLNFQNLSVIGFRILLLKVAGFNLLMTLRLWSSRAKRSGSGVKQTLNFDLLKLAGDVESNPGPSRGHMTEYKPTVRLATRDDVPRAVRTLAAAFADYPATRHTVDPDRHIERVTELQELFLTRVGLDIGKVWVADDGAAVAVWTTPESVEAGAVFAEIGPRMAELSGSRLAAQQQMEGLLAPHRPKEPAWFLATVGVSPDHQGKGLGSAVVLPGVEAAERAGVPAFLETSAPRNLPFYERLGFTVTADVEVPEGPRTWCMTRKPGA
On to B1, for which, in the assay on PC3 cells, the “NFAT-GFP ASSAY: PC-3” value is given as “significant GFP induction”.

B2: 22694 (protein)
chain: MALPVTALLLPLALLLHAARPDIQMTQSPSSLSASVGDRVTITCRASQDISNYLNWYQQKPGKAPKLLIYYTSRLHSGVPSRFSGSGSGTDFTLTISSLQPEDFATYYCQQGNTLPWTFGQGTKVEIKRLEDLKNVFPPEVAVFEPSEAEISHTQKATLVCLATGFYPDHVELSWWVNGKEVHSGVCTDPQPLKEQPALNDSRYCLSSRLRVSATFWQNPRNHFRCQVQFYGLSENDEWTQDRAKPVTQIVSAEAWGRADCGFTSESYQQGVLSATILYEILLGKATLYAVLVSALVLMAMVKRKDSRGRAKRSGSGATNFSLLKQAGDVEENPGPTSMDWIWRILFLVGAATGAHSFEVQLVESGGGLVQPGGSLRLSCAASGFTFSDYFMSWVRQAPGKGLEWVATISNGGTYTYYPDSVKGRFTISRDNSKNTLYLQMNSLRAEDTAVYYCARFDGYIFDYWGQGTLVTVSSTRIQNPDPAVYQLRDSKSSDKSVCLFTDFDSQTNVSQSKDSDVYITDKCVLDMRSMDFKSNSAVAWSNKSDFACANAFNNSIIPEDTFFPSPESSCDVKLVEKSFETDTNLNFQNLSVIGFRILLLKVAGFNLLMTLRLWSSRAKRSGSGVKQTLNFDLLKLAGDVESNPGPSRGHMTEYKPTVRLATRDDVPRAVRTLAAAFADYPATRHTVDPDRHIERVTELQELFLTRVGLDIGKVWVADDGAAVAVWTTPESVEAGAVFAEIGPRMAELSGSRLAAQQQMEGLLAPHRPKEPAWFLATVGVSPDHQGKGLGSAVVLPGVEAAERAGVPAFLETSAPRNLPFYERLGFTVTADVEVPEGPRTWCMTRKPGA
In the case of B2, the “NFAT-GFP ASSAY: SKOV-3” value in the assay on SKOV3 cells is on record as “lowest GFP induction”.

B3: 22687 (protein)
chain: MALPVTALLLPLALLLHAARPDIQMTQSPSSLSASVGDRVTITCRASQDISNYLNWYQQKPGKAPKLLIYYTSRLHSGVPSRFSGSGSGTDFTLTISSLQPEDFATYYCQQGNTLPWTFGQGTKVEIKRLEDLKNVFPPEVAVFEPSEAEISHTQKATLVCLATGFYPDHVELSWWVNGKEVHSGVCTDPQPLKEQPALNDSRYCLSSRLRVSATFWQNPRNHFRCQVQFYGLSENDEWTQDRAKPVTQIVSAEAWGRADCGFTSESYQQGVLSATILYEILLGKATLYAVLVSALVLMAMVKRKDSRGRAKRSGSGATNFSLLKQAGDVEENPGPTSMDWIWRILFLVGAATGAHSFEVQLVESGGGLVQPGGSLRLSCAASGYTFSDYFMSWVRQAPGKGLEWVATISNGGTYTYYPDSVKGRFTISRDNSKNTLYLQMNSLRAEDTAVYYCARFDGYIFDYWGQGTLVTVSSTRIQNPDPAVYQLRDSKSSDKSVCLFTDFDSQTNVSQSKDSDVYITDKCVLDMRSMDFKSNSAVAWSNKSDFACANAFNNSIIPEDTFFPSPESSCDVKLVEKSFETDTNLNFQNLSVIGFRILLLKVAGFNLLMTLRLWSSRAKRSGSGVKQTLNFDLLKLAGDVESNPGPSRGHMTEYKPTVRLATRDDVPRAVRTLAAAFADYPATRHTVDPDRHIERVTELQELFLTRVGLDIGKVWVADDGAAVAVWTTPESVEAGAVFAEIGPRMAELSGSRLAAQQQMEGLLAPHRPKEPAWFLATVGVSPDHQGKGLGSAVVLPGVEAAERAGVPAFLETSAPRNLPFYERLGFTVTADVEVPEGPRTWCMTRKPGA
With B3, in the assay with SKOV3 cells, the “NFAT-GFP ASSAY: SKOV-3” value was “weaker but sufficient GFP induction”. Also, in the assay with PC3 cells, the “NFAT-GFP ASSAY: PC-3” value is listed as “none to negligible GFP induction”.

B4: 4089 (protein)
chain: MALPVTALLLPLALLLHAARPDIQMTQSPSSLSASVGDRVTITCKASDHINNWLAWYQQKPGQAPKLLIYGATTLETGVPSRFSGSGSGTDYTLTISSLQPEDFATYYCQQSWNTPWTFGQGTKLEIKRLEDLKNVFPPEVAVFEPSKAEIAHTQKATLVCLATGFYPDHVELSWWVNGKEVHSGVCTDPQPLKEQPALNDSRYCLSSRLRVSATFWQNPRNHFRCQVQFYGLSENDEWTQDRAKPVTQIVSAEAWGRADCGITSASYHQGVLSATILYEILLGKATLYAVLVSALVLMAMVKRKDSRGRAKRSGSGATNFSLLKQAGDVEENPGPTSMDWIWRILFLVGAATGAHSGPQVQLQESGGGLAQAGGSLRLSCAASGRTFSMGWFRQAPGKEREFVAAITYSGGSPYYASSVRGRFTISRDNAKNTVYLQMNSLKPEDTAVYYCAANPTYGSDWNAENWGQGTQVTVSSGSGGGGSGGGGSGGGGSFEQVQLQQPGAELVKPGASVKMSCKASGYAFSSYWINWMKQKPGQGLEWIGQIYPGDGDTNYNGKFKGRATLTADTSSSTAYMQLSSLTSEDSAVYFCARSITTVVGCAMDYWGQGTSVTVSSTRIQNPDPAVYQLRDSKSSDKSVCLFTDFDSQTNVSQSKDSDVYITDKCVLDMRSMDFKSNSAVAWSNKSDFACANAFNNSIIPEDTFFPSSDVPCDVKLVEKSFETDTNLNFQNLSVIGFRILLLKVAGFNLLMTLRLWSSRAKRSGSGVKQTLNFDLLKLAGDVESNPGPSRGHMTEYKPTVRLATRDDVPRAVRTLAAAFADYPATRHTVDPDRHIERVTELQELFLTRVGLDIGKVWVADDGAAVAVWTTPESVEAGAVFAEIGPRMAELSGSRLAAQQQMEGLLAPHRPKEPAWFLATVGVSPDHQGKGLGSAVVLPGVEAAERAGVPAFLETSAPRNLPFYERLGFTVTADVEVPEGPRTWCMTRKPGA
modifications: Synthetic Polynucloetide
As for B4, the “GFP induction (JNG-GFP induction assay), RAJI WT” value with RAJI cells was “positive”. Moreover, the “GFP induction (JNG-GFP induction assay), DAUDI” value in the assay with DAUDI (CD20+) cells was “highly positive”. In addition, in the assay with RS411 cells, the “GFP induction (JNG-GFP induction assay), RS;411” value is “highly positive”.
